The target in data set [1] is hPUF_MT(905A) (UniProt Q14671 SEQ:1-349, F905A). The experiment in a line: EMSA; not significantly affected. The note with it: tags: MBP; label: Alexa680 at 5' and 3'. The method, then: (§1) An RNA probe (OTS-1511) containing a target sequence fluorescence-labeled with Alexa680 at both ends thereof was synthesized.
(§2) Each purified protein was diluted to a desired concentration with Binding Buffer, mixed with a binding buffer and Ribonuclease Inhibitor, Cloned (Invitrogen), and then, mixed with the RNA probe at a final concentration of 0.5 nM. […] A binding reaction was performed at 4° C. for 30 min. Subsequently, the solution was gently mixed by pipetting. A binding reaction was performed again at 4° C. for […].

In data set [2] the target is human PUM1 PUF domain wild type (hPUF WT) (UniProt Q14671 SEQ:1-349). The data set is described as follows: EMSA; reference; 4 C, 100 mM NaCl, 1 mM EDTA, pH 7.5. The conditions noted are these: label: Alexa680 at 5' and 3'. Here is the method: as §2
The solution obtained after the binding reaction was applied to 6% a non-denaturing polyacrylamide gel, followed by electrophoresis at 4° C. and 200 V. When the electrophoresis marker (2 μL of 6×Dye+10 μL of 1×binding buffer) moved by 0.5 cm, the voltage was changed to 100 V, and electrophoresis was continuously performed until the electrophoresis marker moved by 3 cm. Finally, RNA was detected with Odyssey.

Data set [3] concerns the target T1, hPUF_MT(R3→R5) (UniProt Q14671 SEQ:1-349).
T1 chain: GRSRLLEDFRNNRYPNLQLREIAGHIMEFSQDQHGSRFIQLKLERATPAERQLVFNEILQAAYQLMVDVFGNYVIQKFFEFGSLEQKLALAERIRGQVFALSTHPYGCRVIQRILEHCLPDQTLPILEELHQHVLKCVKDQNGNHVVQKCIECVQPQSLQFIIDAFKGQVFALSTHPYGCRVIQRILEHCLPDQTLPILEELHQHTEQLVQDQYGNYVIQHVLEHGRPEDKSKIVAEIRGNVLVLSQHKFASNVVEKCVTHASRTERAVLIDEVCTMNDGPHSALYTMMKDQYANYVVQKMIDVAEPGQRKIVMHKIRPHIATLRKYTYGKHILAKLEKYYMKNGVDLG
The experiment in a line: EMSA; comparable to WT. The conditions noted are these: label: Alexa680 at 5' and 3'. Here is the method:
as §1, §2

Data set [4] deals with T2, hPUF_MT(R4→R6) (UniProt Q14671 SEQ:1-349).
T2 chain: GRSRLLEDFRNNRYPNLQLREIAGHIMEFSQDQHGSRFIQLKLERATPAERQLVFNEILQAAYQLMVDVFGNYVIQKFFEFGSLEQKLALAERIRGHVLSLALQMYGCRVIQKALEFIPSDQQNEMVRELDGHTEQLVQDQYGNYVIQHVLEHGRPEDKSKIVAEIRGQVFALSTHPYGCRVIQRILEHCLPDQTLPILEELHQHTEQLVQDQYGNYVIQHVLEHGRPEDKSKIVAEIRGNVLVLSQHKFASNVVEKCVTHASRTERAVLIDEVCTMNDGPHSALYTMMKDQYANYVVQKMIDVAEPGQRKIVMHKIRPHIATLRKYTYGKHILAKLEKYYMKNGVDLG
The experiment in a line: EMSA; comparable to WT. The note with it: label: Alexa680 at 5' and 3'. Here is the method:
as §1, §2

The target of data set [5] is T3, hPUF_MT(R7_S12N,E16Q, R3→R5, R4→R6) (R7 repeat S12N,E16Q).
T3 chain: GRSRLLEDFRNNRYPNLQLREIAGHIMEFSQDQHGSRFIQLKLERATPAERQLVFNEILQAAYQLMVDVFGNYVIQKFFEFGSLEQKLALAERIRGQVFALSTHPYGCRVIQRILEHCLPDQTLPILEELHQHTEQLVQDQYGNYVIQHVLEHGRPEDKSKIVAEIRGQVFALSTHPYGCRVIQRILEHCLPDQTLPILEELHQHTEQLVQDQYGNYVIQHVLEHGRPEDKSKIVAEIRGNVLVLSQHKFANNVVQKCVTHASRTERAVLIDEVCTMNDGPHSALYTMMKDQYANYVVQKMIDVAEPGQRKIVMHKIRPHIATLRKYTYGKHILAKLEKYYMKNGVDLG
The data set is described as follows: EMSA; binds U exclusively. The conditions noted are these: label: Alexa680 at 5' and 3'.

B1: OTS-1511 (ssRNA)
RNA: CCAGAAUUGUAUAUAUUCG
As for B1, the binding result in data set [1] is “binds”; in data set [2], “binds”; in data set [3], “binds”; in data set [4], “binds”; in data set [5], “no binding”.

For the origin of these results see patent publication US11472855, “RNA-binding protein” (Panitch Schwarze Belisario & Nadel LLP).
